This is an account of results in IntAct's records for PubMed 16316992.

The target in assay [1] is magi3_human MAGI3 (UniProt Q5TCQ9).
Assay [2] shares this target. This is another data set of the same source.

magi3_human MAGI3, sequence (Q5TCQ9 whole entry): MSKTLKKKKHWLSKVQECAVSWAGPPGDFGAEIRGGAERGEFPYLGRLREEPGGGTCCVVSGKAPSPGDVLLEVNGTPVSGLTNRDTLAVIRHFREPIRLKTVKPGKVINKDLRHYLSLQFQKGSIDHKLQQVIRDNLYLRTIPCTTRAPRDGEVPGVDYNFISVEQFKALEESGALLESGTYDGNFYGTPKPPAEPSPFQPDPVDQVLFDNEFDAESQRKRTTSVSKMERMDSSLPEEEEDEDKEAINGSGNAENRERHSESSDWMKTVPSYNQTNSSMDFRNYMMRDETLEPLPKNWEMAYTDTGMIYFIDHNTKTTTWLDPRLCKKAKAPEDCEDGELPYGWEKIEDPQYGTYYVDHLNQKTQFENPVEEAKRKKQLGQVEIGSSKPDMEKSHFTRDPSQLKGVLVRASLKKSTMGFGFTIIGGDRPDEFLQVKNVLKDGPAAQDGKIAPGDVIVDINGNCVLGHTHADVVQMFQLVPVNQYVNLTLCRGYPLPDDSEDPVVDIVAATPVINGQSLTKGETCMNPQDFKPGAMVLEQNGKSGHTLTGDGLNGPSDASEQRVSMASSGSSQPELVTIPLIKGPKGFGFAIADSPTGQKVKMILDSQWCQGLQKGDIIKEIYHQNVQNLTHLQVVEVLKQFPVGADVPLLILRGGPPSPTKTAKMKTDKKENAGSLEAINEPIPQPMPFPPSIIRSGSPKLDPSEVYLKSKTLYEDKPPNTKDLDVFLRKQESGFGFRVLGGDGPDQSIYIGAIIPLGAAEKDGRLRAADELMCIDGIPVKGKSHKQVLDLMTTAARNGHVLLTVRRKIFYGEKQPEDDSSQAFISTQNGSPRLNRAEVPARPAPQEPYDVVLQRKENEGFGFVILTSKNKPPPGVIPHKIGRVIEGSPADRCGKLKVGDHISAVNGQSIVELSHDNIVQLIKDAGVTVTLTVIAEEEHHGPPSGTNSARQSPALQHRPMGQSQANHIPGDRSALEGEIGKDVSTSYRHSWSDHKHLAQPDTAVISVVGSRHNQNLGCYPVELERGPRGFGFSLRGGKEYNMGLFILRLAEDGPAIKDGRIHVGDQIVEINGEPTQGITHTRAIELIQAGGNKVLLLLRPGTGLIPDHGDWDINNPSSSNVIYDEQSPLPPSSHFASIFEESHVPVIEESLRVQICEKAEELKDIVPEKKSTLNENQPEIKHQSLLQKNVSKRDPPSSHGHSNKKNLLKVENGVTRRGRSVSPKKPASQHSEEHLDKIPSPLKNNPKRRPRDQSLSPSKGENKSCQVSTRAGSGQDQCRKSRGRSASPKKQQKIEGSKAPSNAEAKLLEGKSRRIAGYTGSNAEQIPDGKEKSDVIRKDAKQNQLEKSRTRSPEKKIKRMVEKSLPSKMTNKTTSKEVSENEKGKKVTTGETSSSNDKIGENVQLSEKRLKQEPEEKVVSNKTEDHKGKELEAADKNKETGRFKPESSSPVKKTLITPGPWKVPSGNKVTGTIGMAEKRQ
Beta-1 adrenergic receptor (Homo sapiens), P08588 V477M, sequence (P08588 whole entry V477M): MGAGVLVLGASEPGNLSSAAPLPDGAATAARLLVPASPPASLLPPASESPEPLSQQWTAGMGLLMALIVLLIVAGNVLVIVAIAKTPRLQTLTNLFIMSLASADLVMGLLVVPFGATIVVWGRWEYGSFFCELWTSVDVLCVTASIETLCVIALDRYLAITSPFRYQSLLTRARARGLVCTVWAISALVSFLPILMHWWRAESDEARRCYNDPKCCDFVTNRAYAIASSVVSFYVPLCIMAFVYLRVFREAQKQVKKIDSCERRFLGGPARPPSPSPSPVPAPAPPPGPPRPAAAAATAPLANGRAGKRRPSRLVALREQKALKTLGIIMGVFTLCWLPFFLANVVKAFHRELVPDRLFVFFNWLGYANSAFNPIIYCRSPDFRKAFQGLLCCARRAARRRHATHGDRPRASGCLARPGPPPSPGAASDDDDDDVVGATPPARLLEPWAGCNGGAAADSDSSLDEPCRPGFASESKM
Beta-1 adrenergic receptor (Homo sapiens), P08588 K476R, sequence (P08588 whole entry K476R): as the sequence (P08588 whole entry V477M) above, with K476R, M477V counted along it
Beta-1 adrenergic receptor (Homo sapiens), P08588 V477L, sequence (P08588 whole entry V477L): as the sequence (P08588 whole entry V477M) above, with M477L counted along it
Beta-1 adrenergic receptor (Homo sapiens), P08588 S475A, sequence (P08588 whole entry S475A): as the sequence (P08588 whole entry V477M) above, with S475A, M477V counted along it
Beta-1 adrenergic receptor (Homo sapiens), P08588 E474T, sequence (P08588 whole entry E474T): as the sequence (P08588 whole entry V477M) above, with E474T, M477V counted along it
Beta-1 adrenergic receptor (Homo sapiens), P08588 V477I, sequence (P08588 whole entry V477I): as the sequence (P08588 whole entry V477M) above, with M477I counted along it
Beta-1 adrenergic receptor (Homo sapiens), P08588 E474A, sequence (P08588 whole entry E474A): as the sequence (P08588 whole entry V477M) above, with E474A, M477V counted along it
Beta-1 adrenergic receptor (Homo sapiens), P08588 V477A, sequence (P08588 whole entry V477A): as the sequence (P08588 whole entry V477M) above, with M477A counted along it

Turning to “Beta-1 adrenergic receptor (Homo sapiens), P08588 E474A”, the “effect of a mutation on the interaction” value in the assay with magi3_human MAGI3 [1] is on record as “decreasing interaction”.

“Beta-1 adrenergic receptor (Homo sapiens), P08588 E474T”: the “effect of a mutation on the interaction” value in the assay with magi3_human MAGI3 [1] is recorded as “decreasing interaction”. For “Beta-1 adrenergic receptor (Homo sapiens), P08588 K476R”, the “effect of a mutation on the interaction” value in the assay with magi3_human MAGI3 [1] is given as “decreasing interaction”. “Beta-1 adrenergic receptor (Homo sapiens), P08588 S475A”: the “effect of a mutation on the interaction” value with magi3_human MAGI3 [1] is “decreasing interaction”. As to “Beta-1 adrenergic receptor (Homo sapiens), P08588 V477A”, the “effect of a mutation on the interaction” value with magi3_human MAGI3 [1] is “decreasing interaction”.

For “Beta-1 adrenergic receptor (Homo sapiens), P08588 V477I”, in the assay with magi3_human MAGI3 [2], the “effect of a mutation on the interaction” value is reported as “decreasing interaction”. For the substance “Beta-1 adrenergic receptor (Homo sapiens), P08588 V477L”, the “effect of a mutation on the interaction” value with magi3_human MAGI3 [2] is given as “decreasing interaction”. The same measure, in the same setting: the result for “Beta-1 adrenergic receptor (Homo sapiens), P08588 V477M” reads “decreasing interaction”.
